Laboratory results reported in patent US20030077273A1.
Blank lines part the entries; values can stand above or below the substance they belong to.

Experiments:
[1] = molecular target: human CD21 on Raji cells (CD21+ human Burkitt's lymphoma cell line) (human) (UniProt P20023); experiment: cell ELISA on Raji cells, anti-mouse IgG-AP
[2] = molecular target: human CD21 on Raji cells (CD21+ human Burkitt's lymphoma cell line) (human) (UniProt P20023); experiment: flow cytometry on Raji cells, anti-mouse IgG-FITC
[3] = molecular target: mouse Ig G lambda (isotype of the Ig fusion partner), coated on wells; experiment: direct ELISA, MoIg-coated control wells, anti-mouse Ig kappa-AP
[4] = molecular target: recombinant soluble human CD21 (1-2)-Ig fusion protein (human) (UniProt P20023); experiment: direct ELISA, sCD21-coated wells, anti-mouse Ig kappa-AP
recombinant soluble human CD21 (1-2)-Ig fusion protein (human), sequence (P20023 21-148): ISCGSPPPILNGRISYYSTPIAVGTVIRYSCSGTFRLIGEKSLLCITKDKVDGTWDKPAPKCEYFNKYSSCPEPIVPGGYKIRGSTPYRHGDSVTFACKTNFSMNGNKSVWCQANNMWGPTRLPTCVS

[5] = molecular target: human CD21 on Raji cells (CD21+ human Burkitt's lymphoma cell line) (human) (UniProt P20023); experiment: flow cytometry, control BSA-coated microspheres on Raji cells, 25 microspheres per cell
[6] = molecular target: human CD21 on Raji cells (CD21+ human Burkitt's lymphoma cell line) (human) (UniProt P20023); experiment: flow cytometry, control BSA-coated microspheres on Raji cells, 100 microspheres per cell
[7] = molecular target: human CD21 on Raji cells (CD21+ human Burkitt's lymphoma cell line) (human) (UniProt P20023); experiment: flow cytometry, control BSA-coated microspheres on Raji cells, 50 microspheres per cell
[8] = molecular target: human CD21 on Raji cells (CD21+ human Burkitt's lymphoma cell line) (human) (UniProt P20023); experiment: flow cytometry, competition: C3d beads 25:1 on Raji cells with 15 ng HB5
[9] = molecular target: human CD21 on Raji cells (CD21+ human Burkitt's lymphoma cell line) (human) (UniProt P20023); experiment: flow cytometry, competition: C3d beads 50:1 on Raji cells with 30 ng HB5
[10] = molecular target: human CD21 on Raji cells (CD21+ human Burkitt's lymphoma cell line) (human) (UniProt P20023); experiment: flow cytometry, competition: C3d beads 50:1 on Raji cells with 15 ng HB5
[11] = molecular target: human CD21 on Raji cells (CD21+ human Burkitt's lymphoma cell line) (human) (UniProt P20023); experiment: flow cytometry, competition: C3d beads 100:1 on Raji cells with 15 ng HB5
[12] = molecular target: human CD21 on Raji cells (CD21+ human Burkitt's lymphoma cell line) (human) (UniProt P20023); experiment: flow cytometry, competition: C3d beads 100:1 on Raji cells with 30 ng HB5
[13] = molecular target: human CD21 on Raji cells (CD21+ human Burkitt's lymphoma cell line) (human) (UniProt P20023); experiment: flow cytometry, competition: C3d beads 25:1 on Raji cells with 30 ng HB5

human CD21 on Raji cells (CD21+ human Burkitt's lymphoma cell line) (human), sequence (P20023 21-1033): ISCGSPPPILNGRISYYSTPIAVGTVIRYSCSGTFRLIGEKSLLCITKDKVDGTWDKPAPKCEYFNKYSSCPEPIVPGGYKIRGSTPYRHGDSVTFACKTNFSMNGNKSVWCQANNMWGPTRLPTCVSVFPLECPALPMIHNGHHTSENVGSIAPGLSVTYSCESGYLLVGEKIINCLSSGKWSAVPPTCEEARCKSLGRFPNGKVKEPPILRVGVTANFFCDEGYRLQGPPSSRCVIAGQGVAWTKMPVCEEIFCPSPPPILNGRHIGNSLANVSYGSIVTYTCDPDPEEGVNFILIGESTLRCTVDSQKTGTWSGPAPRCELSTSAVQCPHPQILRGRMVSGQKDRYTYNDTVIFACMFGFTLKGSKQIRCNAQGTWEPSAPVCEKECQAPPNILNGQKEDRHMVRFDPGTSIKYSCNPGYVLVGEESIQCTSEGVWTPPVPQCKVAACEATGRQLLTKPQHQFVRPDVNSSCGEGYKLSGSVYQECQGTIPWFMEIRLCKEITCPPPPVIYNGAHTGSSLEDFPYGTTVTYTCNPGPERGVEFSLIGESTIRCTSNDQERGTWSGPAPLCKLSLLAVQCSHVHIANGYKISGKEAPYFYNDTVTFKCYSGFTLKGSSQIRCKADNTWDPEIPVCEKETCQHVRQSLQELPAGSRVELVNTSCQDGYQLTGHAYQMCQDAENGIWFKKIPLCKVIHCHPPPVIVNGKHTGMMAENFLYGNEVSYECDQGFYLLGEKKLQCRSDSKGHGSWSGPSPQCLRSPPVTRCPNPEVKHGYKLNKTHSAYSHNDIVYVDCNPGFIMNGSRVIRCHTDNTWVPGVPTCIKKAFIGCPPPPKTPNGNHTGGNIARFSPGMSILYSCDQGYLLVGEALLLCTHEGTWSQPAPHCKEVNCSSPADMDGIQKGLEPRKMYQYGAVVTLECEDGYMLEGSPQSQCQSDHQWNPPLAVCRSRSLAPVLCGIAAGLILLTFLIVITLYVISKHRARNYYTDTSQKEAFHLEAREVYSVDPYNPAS

OD 550 nm [1]: 0.546 OD 550 nm
Mean Fluorescent Index (MFI) [2]: 85 MFI
Substance: anti-human CD21 mAb BE-5 (BioSource International) (antibody)

OD 550 nm [1]: 1.17 OD 550 nm
Substance: anti-human CD21 mAb Bly-4 (antibody)

OD [3]: 0.096 OD
OD [4]: 0.44 OD
Mean Fluorescent Index (MFI) [2]: 123 MFI
Substance: OKB7 (mouse anti-human CD21, Ortho Diagnostics) (antibody)

% Cells Bound [5]: 1.5%
% Cells Bound [6]: 22.6%
% Cells Bound [7]: 6.83%
Substance: BSA coated on 1 um fluorescent microspheres (from UniProt P02769 25-607)

OD 550 nm [1]: 0.072 OD 550 nm
Substance: Mouse IgG (control) (antibody)

% Cells Bound (by C3d beads in presence of mAb) [8]: 19.4%
% Inhibition by mAb [8]: 11.8%
% Cells Bound (by C3d beads in presence of mAb) [9]: 39.8%
% Inhibition by mAb [9]: 20.5%
% Cells Bound (by C3d beads in presence of mAb) [10]: 42.4%
% Inhibition by mAb [10]: 15.3%
% Cells Bound (by C3d beads in presence of mAb) [11]: 69.3%
% Inhibition by mAb [11]: 6.5%
% Cells Bound (by C3d beads in presence of mAb) [12]: 67.2%
% Inhibition by mAb [12]: 9.4%
% Cells Bound (by C3d beads in presence of mAb) [13]: 15.4%
% Inhibition by mAb [13]: 29.7%
Mean Fluorescent Index (MFI) [2]: 117 MFI
Substance: mouse anti-human CD21 mAb HB5 (BD Pharmingen) (antibody)
